These results are taken from US20250011418A1 (ZIELBIO, published 2025).

In general, EC50 (read off the curve) refers to the concentration needed to bring the measured effect to its halfway point. Usually EC50 stands for the midpoint of the concentration-response curve. A lower EC50 goes with greater potency. What is called Kd is a measure of binding affinity in units of concentration. Lower therefore signals tighter binding.

Where two headings read alike, the source gives them in different places.

Assay [1] has as its target T1, Reb-His (Reb, a sub-fragment of Sec8, tagged with a polyhistidine (His) tag).
T1 construct: also called Reb-His peptide
T1 chain: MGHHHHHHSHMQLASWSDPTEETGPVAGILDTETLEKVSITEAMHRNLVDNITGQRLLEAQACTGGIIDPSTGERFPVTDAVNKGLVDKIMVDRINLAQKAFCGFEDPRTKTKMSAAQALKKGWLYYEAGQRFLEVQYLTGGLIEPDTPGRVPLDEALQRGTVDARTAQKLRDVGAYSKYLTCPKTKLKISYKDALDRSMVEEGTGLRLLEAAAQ
Nature of the assay: ELISA on REB-HIS, absorbance 650 nm against concentration in nM on a log axis.

The target of assay [2] is T1, Reb-His (Reb, a sub-fragment of Sec8, …). Description: ELISA on REB-HIS, absorbance 650 nm; no unit stands beside the number, the concentration axis is in nM.
Assay [3] deals with T2, Sec8-His (section 8 (Sec8), an antigenic region of CSP-1, tagged with a polyhistidine (His) tag).
T2 construct: also called Sec8-His antigen
T2 chain: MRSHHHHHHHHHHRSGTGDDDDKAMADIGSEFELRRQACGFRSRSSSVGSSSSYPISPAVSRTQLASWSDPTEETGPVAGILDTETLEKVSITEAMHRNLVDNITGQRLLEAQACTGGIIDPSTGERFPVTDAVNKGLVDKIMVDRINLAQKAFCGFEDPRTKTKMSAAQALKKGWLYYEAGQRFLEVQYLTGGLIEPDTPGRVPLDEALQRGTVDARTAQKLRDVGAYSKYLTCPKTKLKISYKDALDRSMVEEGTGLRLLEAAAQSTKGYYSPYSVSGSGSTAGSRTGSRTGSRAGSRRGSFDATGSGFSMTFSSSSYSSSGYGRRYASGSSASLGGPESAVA
Nature of the assay: ELISA on Sec8-His. How it is done: (§1) The binding of humanized anti-CSP-1 antibody (Ab51) to an antigenic region of CSP-1 called section 8 (Sec8) was measured using ELISA.
Background: ELISA stands for enzyme-linked immunosorbent assay.

Assay [4] concerns the target T2, Sec8-His (section 8 (Sec8), an …). Description: ELISA, absorbance 650 nm against concentration in nM on a log axis. How it is done:
as §1

Assay [5] addresses T1, Reb-His (Reb, a sub-fragment of Sec8, …). Nature of the assay: ELISA on REB-HIS, absorbance 650 nm; no unit stands beside the number, the concentration axis is in nM. The procedure: Furthermore, the binding of Ab51 to a sub-fragment of Sec8, called Reb, was measured using ELISA.

B1: murine anti-CSP-1 antibody 1D7 (hybridoma clone) (antibody, V domains shown)
VH: EVQLVESGGDLVKPGGSLKLSCAASGFTFSRYGMSWVRQTPDKRLEWVATISIGGTYTYYPDSMKGRFTISRDNAKNTLYLQMSSLKSEDTAMYYCARRGYGNYSYYGMDYWGQGTSVTVSS
VL: DIVMTQAAFSNPVTLGTSASISCRSSKSLLHSNGITYLYWYLQKPGQSPQLLIYQMSNLASGVPDRFSSSGSGTDFTLRISRVEAEDVGVYYCAQNLELPLTFGAGTKLELK
notes: Murine antibody
For B1, the “EC50 (read off the curve)” value in assay [1] was around 0.4 nM. The EC50 in assay [2] came out at 0.365 nM.

B2: humanized anti-CSP-1 antibody, Antibody 51 (Ab51) (antibody, V domains shown)
VH: EVQLVESGGGLVQPGGSLRLSCAASGFTFSRYGMSWVRQAPGKRLEWVATISIGGTYTYYPDSMKGRFTISRDNSKNTLYLQMNSLRAEDTAMYYCARRGYGQYSYYGLDYWGQGTLVTVSS
VL: DIVMTQSALSNPVTLGQSASISCRSSKSLLHSQGITYLYWYLQKPGQSPQLLIYQMSNRASGVPDRFSSSGSGTDFTLKISRVEAEDVGVYYCAQNLELPLTFGQGTKLEIK
notes: also called Antibody Number 51; huZB131
In turn, B2 gave an equilibrium dissociation constant (Kd) in assay [3] of 0.441 nM. Moreover, the “EC50 (read off the curve)” value in assay [4] was around 0.4 nM. The molecule further yielded an EC50 in assay [5] of 0.124 nM.
